# In patent US20210324359A1, “USE OF GRAM-NEGATIVE LYSIN-ANTIMICROBIAL PEPTIDE (AMP) POLYPEPTIDE CONSTRUCTS IN TREATING ENDOCARDITIS” (priority 2020, published 2021):
# B1: GN121: variant lysin (SEQ ID NO: 175), also disclosed in WO 2019/118632 (protein)
# chain: MTYTLSKRSLDNLKGVHPDLVAVVHRAIQLTPVDFAVIEGLRSVSRQKELVAAGASKTMNSRHLTGHAVDLAAYVNGIRWDWPLYDAIAVAVKAAAKELGVAIVWGGDWTTFKDGPHFELDRSKYRRKKTRKRLKKIGKVLKWI
# B2: GN370: lysin-AMP construct: MIDR, FIRL and NPTH moieties N-terminal to GN202 lysin (SEQ ID NO: 44) (protein)
# chain: MIDRFIRLNPTHGPRRPRRPGRRAPVRTSQRGIDLIKSFEGLRLSAYQDSVGVWTIGYGTTRGVTRYMTITVEQAERMLSNDIQRFEPELDRLAKVPLNQNQWDALMSFVYNLGAANLASSTLLDLLNKGDYQGAADQFPHWVNAGGKRLDGLVKRRAAERALFLEPLS
# How the values were obtained:
# [1] = tested on: Pseudomonas aeruginosa strain 1292; conditions: 10 μg/mL, 15 minutes, 100% human serum
# From the text: Samples were stained using the Live/Dead Cell Viability Kit (ThermoFisher) and examined by both differential interference contrast (DIC) and fluorescence microscopy.
# [2] = tested on: biofilms formed by P. aeruginosa strain ATCC 17646; conditions: strain ATCC 17646 biofilm
# Procedure: Biofilms are then washed and treated with e.g., a 2-fold dilution series of the lysin in TSBg at e.g., 37° C. for 24 hours. After treatment, wells are washed, air-dried at e.g., 37° C. and stained with e.g., 0.05% crystal violet for 10 minutes.
# [3] = tested on: P. aeruginosa strain PA453; assay: Time-kill assay of GN370 in animal blood (Table 34); format: cell-based, Pseudomonas aeruginosa; conditions: for Log10 CFU/mL of P. aeruginosa: limit of detection 1.6
# From the text: The results are shown below in Table 34, wherein survival is reported as Log10 CFU/mL and wherein the limit of detection was 1.6 Log10 CFU/mL.
molecule,measurement,setting,value
B1,live/dead bacteria by microscopy,[1],a reduction of live bacteria
B2,MBEC,[2],1 µg/mL
same,Log10 CFU/mL of P. aeruginosa,"[3]; Dog blood, 2 hours, GN370 4 μg/mL",3.5 Log10 CFU/mL
same,Log10 CFU/mL of P. aeruginosa,"[3]; Dog blood, 2 hours, GN370 20 μg/mL",1.6 Log10 CFU/mL
same,Log10 CFU/mL of P. aeruginosa,"[3]; Dog blood, 2 hours, GN370 50 μg/mL",1.6 Log10 CFU/mL
same,Log10 CFU/mL of P. aeruginosa,"[3]; Dog blood, 2 hours, GN370 100 μg/mL",1.6 Log10 CFU/mL
same,Log10 CFU/mL of P. aeruginosa,"[3]; Dog blood, 2 hours, GN370 200 μg/mL",1.6 Log10 CFU/mL
same,Log10 CFU/mL of P. aeruginosa,"[3]; Dog blood, 4 hours, GN370 4 μg/mL",4.7 Log10 CFU/mL
same,Log10 CFU/mL of P. aeruginosa,"[3]; Dog blood, 4 hours, GN370 20 μg/mL",1.6 Log10 CFU/mL
same,Log10 CFU/mL of P. aeruginosa,"[3]; Dog blood, 4 hours, GN370 50 μg/mL",1.6 Log10 CFU/mL
same,Log10 CFU/mL of P. aeruginosa,"[3]; Dog blood, 4 hours, GN370 100 μg/mL",1.6 Log10 CFU/mL
same,Log10 CFU/mL of P. aeruginosa,"[3]; Dog blood, 4 hours, GN370 200 μg/mL",1.6 Log10 CFU/mL
same,Log10 CFU/mL of P. aeruginosa,"[3]; Dog blood, 24 hours, GN370 4 μg/mL",7.2 Log10 CFU/mL
same,Log10 CFU/mL of P. aeruginosa,"[3]; Dog blood, 24 hours, GN370 20 μg/mL",1.6 Log10 CFU/mL
same,Log10 CFU/mL of P. aeruginosa,"[3]; Dog blood, 24 hours, GN370 50 μg/mL",1.6 Log10 CFU/mL
same,Log10 CFU/mL of P. aeruginosa,"[3]; Dog blood, 24 hours, GN370 100 μg/mL",1.6 Log10 CFU/mL
same,Log10 CFU/mL of P. aeruginosa,"[3]; Dog blood, 24 hours, GN370 200 μg/mL",1.6 Log10 CFU/mL
same,Log10 CFU/mL of P. aeruginosa,"[3]; Human blood, 2 hours, GN370 4 μg/mL",1.6 Log10 CFU/mL
same,Log10 CFU/mL of P. aeruginosa,"[3]; Human blood, 2 hours, GN370 20 μg/mL",1.6 Log10 CFU/mL
same,Log10 CFU/mL of P. aeruginosa,"[3]; Human blood, 2 hours, GN370 50 μg/mL",1.6 Log10 CFU/mL
same,Log10 CFU/mL of P. aeruginosa,"[3]; Human blood, 2 hours, GN370 100 μg/mL",1.6 Log10 CFU/mL
same,Log10 CFU/mL of P. aeruginosa,"[3]; Human blood, 2 hours, GN370 200 μg/mL",1.6 Log10 CFU/mL
same,Log10 CFU/mL of P. aeruginosa,"[3]; Human blood, 4 hours, GN370 4 μg/mL",1.6 Log10 CFU/mL
same,Log10 CFU/mL of P. aeruginosa,"[3]; Human blood, 4 hours, GN370 20 μg/mL",1.6 Log10 CFU/mL
same,Log10 CFU/mL of P. aeruginosa,"[3]; Human blood, 4 hours, GN370 50 μg/mL",1.6 Log10 CFU/mL
same,Log10 CFU/mL of P. aeruginosa,"[3]; Human blood, 4 hours, GN370 100 μg/mL",1.6 Log10 CFU/mL
same,Log10 CFU/mL of P. aeruginosa,"[3]; Human blood, 4 hours, GN370 200 μg/mL",1.6 Log10 CFU/mL
same,Log10 CFU/mL of P. aeruginosa,"[3]; Human blood, 24 hours, GN370 4 μg/mL",4.1 Log10 CFU/mL
same,Log10 CFU/mL of P. aeruginosa,"[3]; Human blood, 24 hours, GN370 20 μg/mL",1.6 Log10 CFU/mL
same,Log10 CFU/mL of P. aeruginosa,"[3]; Human blood, 24 hours, GN370 50 μg/mL",1.6 Log10 CFU/mL
same,Log10 CFU/mL of P. aeruginosa,"[3]; Human blood, 24 hours, GN370 100 μg/mL",1.6 Log10 CFU/mL
same,Log10 CFU/mL of P. aeruginosa,"[3]; Human blood, 24 hours, GN370 200 μg/mL",1.6 Log10 CFU/mL
same,Log10 CFU/mL of P. aeruginosa,"[3]; Rabbit blood, 2 hours, GN370 4 μg/mL",1.6 Log10 CFU/mL
same,Log10 CFU/mL of P. aeruginosa,"[3]; Rabbit blood, 2 hours, GN370 20 μg/mL",1.6 Log10 CFU/mL
same,Log10 CFU/mL of P. aeruginosa,"[3]; Rabbit blood, 2 hours, GN370 50 μg/mL",1.6 Log10 CFU/mL
same,Log10 CFU/mL of P. aeruginosa,"[3]; Rabbit blood, 2 hours, GN370 100 μg/mL",1.6 Log10 CFU/mL
same,Log10 CFU/mL of P. aeruginosa,"[3]; Rabbit blood, 2 hours, GN370 200 μg/mL",1.6 Log10 CFU/mL
same,Log10 CFU/mL of P. aeruginosa,"[3]; Rabbit blood, 4 hours, GN370 4 μg/mL",3.0 Log10 CFU/mL
same,Log10 CFU/mL of P. aeruginosa,"[3]; Rabbit blood, 4 hours, GN370 20 μg/mL",1.6 Log10 CFU/mL
same,Log10 CFU/mL of P. aeruginosa,"[3]; Rabbit blood, 4 hours, GN370 50 μg/mL",1.6 Log10 CFU/mL
same,Log10 CFU/mL of P. aeruginosa,"[3]; Rabbit blood, 4 hours, GN370 100 μg/mL",1.6 Log10 CFU/mL
same,Log10 CFU/mL of P. aeruginosa,"[3]; Rabbit blood, 4 hours, GN370 200 μg/mL",1.6 Log10 CFU/mL
same,Log10 CFU/mL of P. aeruginosa,"[3]; Rabbit blood, 24 hours, GN370 4 μg/mL",4.9 Log10 CFU/mL
same,Log10 CFU/mL of P. aeruginosa,"[3]; Rabbit blood, 24 hours, GN370 20 μg/mL",1.6 Log10 CFU/mL
same,Log10 CFU/mL of P. aeruginosa,"[3]; Rabbit blood, 24 hours, GN370 50 μg/mL",1.6 Log10 CFU/mL
same,Log10 CFU/mL of P. aeruginosa,"[3]; Rabbit blood, 24 hours, GN370 100 μg/mL",1.6 Log10 CFU/mL
same,Log10 CFU/mL of P. aeruginosa,"[3]; Rabbit blood, 24 hours, GN370 200 μg/mL",1.6 Log10 CFU/mL
same,Log10 CFU/mL of P. aeruginosa,"[3]; Rat blood, 2 hours, GN370 4 μg/mL",5.9 Log10 CFU/mL
same,Log10 CFU/mL of P. aeruginosa,"[3]; Rat blood, 2 hours, GN370 20 μg/mL",6.1 Log10 CFU/mL
same,Log10 CFU/mL of P. aeruginosa,"[3]; Rat blood, 2 hours, GN370 50 μg/mL",1.6 Log10 CFU/mL
same,Log10 CFU/mL of P. aeruginosa,"[3]; Rat blood, 2 hours, GN370 100 μg/mL",1.6 Log10 CFU/mL
same,Log10 CFU/mL of P. aeruginosa,"[3]; Rat blood, 2 hours, GN370 200 μg/mL",1.6 Log10 CFU/mL
same,Log10 CFU/mL of P. aeruginosa,"[3]; Rat blood, 4 hours, GN370 4 μg/mL",7.0 Log10 CFU/mL
same,Log10 CFU/mL of P. aeruginosa,"[3]; Rat blood, 4 hours, GN370 20 μg/mL",6.2 Log10 CFU/mL
same,Log10 CFU/mL of P. aeruginosa,"[3]; Rat blood, 4 hours, GN370 50 μg/mL",3.7 Log10 CFU/mL
same,Log10 CFU/mL of P. aeruginosa,"[3]; Rat blood, 4 hours, GN370 100 μg/mL",1.6 Log10 CFU/mL
same,Log10 CFU/mL of P. aeruginosa,"[3]; Rat blood, 4 hours, GN370 200 μg/mL",1.6 Log10 CFU/mL
same,Log10 CFU/mL of P. aeruginosa,"[3]; Rat blood, 24 hours, GN370 4 μg/mL",7.9 Log10 CFU/mL
same,Log10 CFU/mL of P. aeruginosa,"[3]; Rat blood, 24 hours, GN370 20 μg/mL",7.8 Log10 CFU/mL
same,Log10 CFU/mL of P. aeruginosa,"[3]; Rat blood, 24 hours, GN370 50 μg/mL",7.6 Log10 CFU/mL
same,Log10 CFU/mL of P. aeruginosa,"[3]; Rat blood, 24 hours, GN370 100 μg/mL",3.6 Log10 CFU/mL
same,Log10 CFU/mL of P. aeruginosa,"[3]; Rat blood, 24 hours, GN370 200 μg/mL",1.6 Log10 CFU/mL
same,"activity in dog, human, and rabbit blood (time-kill)","[3]; all times, 20-200 μg/mL, strain PA453",high activity
same,activity in rat blood (time-kill),"[3]; majority of the times and concentrations tested, strain PA453",poor or no activity
